Source: patent US20130064834A1 (published 2013)

Tests used:
[1] = biological target: T1, cynomolgus monkey (Macaca fascicularis) PCSK9, myc-myc-his tagged (cynomolgus monkey (Macaca fascicularis), UniProt A8T662 31-692 (Macaca nemestrina entry), limits assumed); experiment: SPR, mAb captured on anti-hFc, 37C
T1 construct: also called mfPCSK9-mmh; mfPCSK9

[2] = biological target: T2, his-tagged Syrian golden hamster (Mesocricetus auratus) PCSK9 (Syrian golden hamster (Mesocricetus …)); experiment: SPR, mAb captured on anti-hFc, 37C
T2 construct: also called maPCSK9-h; maPCSK9
T2 chain: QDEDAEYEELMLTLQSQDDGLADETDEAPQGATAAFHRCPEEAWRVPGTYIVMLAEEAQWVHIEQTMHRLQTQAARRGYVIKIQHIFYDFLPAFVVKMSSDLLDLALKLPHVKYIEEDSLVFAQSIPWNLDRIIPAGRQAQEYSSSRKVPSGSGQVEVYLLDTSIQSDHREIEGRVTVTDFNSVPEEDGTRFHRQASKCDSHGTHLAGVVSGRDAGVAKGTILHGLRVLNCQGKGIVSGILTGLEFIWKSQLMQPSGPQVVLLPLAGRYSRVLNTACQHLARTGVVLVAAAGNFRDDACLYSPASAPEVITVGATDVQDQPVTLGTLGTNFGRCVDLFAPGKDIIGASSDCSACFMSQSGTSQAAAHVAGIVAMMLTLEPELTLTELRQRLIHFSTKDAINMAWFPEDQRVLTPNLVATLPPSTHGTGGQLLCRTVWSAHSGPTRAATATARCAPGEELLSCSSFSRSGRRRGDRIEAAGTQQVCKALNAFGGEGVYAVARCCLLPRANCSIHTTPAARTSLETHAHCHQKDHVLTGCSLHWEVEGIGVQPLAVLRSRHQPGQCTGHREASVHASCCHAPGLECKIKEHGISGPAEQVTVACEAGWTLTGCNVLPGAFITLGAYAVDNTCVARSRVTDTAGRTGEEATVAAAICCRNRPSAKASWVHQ

Human PCSK9-myc-myc-his = biological target: T3, Human PCSK9-myc-myc-his (human, UniProt Q8NBP7 31-692); experiment: SPR, mAb captured on anti-hFc, 37C
T3 construct: also called hPCSK9-mmh; hPCSK9

[3] = biological target: T4, tagged rhesus monkey (Macaca mulata) PCSK9 (rhesus monkey (Macaca mulata), UniProt A8T666 31-692); experiment: SPR, mAb captured on anti-hFc, 37C
T4 construct: also called mmPCSK9-mmh; mmPCSK9
T4 sequence (A8T666 31-692 limits assumed): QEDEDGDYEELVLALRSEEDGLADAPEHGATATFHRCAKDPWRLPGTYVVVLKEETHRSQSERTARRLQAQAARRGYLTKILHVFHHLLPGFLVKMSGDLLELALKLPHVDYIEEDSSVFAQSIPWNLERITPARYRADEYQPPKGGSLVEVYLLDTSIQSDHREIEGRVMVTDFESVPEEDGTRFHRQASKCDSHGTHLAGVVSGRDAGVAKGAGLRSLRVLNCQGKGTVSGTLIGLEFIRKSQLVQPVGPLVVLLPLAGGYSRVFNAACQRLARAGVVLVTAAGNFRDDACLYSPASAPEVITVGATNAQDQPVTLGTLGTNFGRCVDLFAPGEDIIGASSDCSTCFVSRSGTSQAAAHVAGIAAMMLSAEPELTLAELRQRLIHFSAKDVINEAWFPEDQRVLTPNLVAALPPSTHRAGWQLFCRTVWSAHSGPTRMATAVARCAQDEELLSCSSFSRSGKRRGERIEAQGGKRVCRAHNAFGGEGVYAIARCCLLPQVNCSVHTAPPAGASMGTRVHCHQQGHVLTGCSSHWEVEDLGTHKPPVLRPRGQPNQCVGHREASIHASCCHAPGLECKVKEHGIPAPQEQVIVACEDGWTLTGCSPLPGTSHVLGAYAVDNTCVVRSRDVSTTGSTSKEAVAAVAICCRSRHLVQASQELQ

[4] = biological target: T5, human PCSK1, myc-myc-his tagged (human, UniProt P29120 111-753, limits assumed); experiment: ELISA, mAb coated
T5 construct: also called hPCSK1-mmh; hPCSK1
T5 sequence: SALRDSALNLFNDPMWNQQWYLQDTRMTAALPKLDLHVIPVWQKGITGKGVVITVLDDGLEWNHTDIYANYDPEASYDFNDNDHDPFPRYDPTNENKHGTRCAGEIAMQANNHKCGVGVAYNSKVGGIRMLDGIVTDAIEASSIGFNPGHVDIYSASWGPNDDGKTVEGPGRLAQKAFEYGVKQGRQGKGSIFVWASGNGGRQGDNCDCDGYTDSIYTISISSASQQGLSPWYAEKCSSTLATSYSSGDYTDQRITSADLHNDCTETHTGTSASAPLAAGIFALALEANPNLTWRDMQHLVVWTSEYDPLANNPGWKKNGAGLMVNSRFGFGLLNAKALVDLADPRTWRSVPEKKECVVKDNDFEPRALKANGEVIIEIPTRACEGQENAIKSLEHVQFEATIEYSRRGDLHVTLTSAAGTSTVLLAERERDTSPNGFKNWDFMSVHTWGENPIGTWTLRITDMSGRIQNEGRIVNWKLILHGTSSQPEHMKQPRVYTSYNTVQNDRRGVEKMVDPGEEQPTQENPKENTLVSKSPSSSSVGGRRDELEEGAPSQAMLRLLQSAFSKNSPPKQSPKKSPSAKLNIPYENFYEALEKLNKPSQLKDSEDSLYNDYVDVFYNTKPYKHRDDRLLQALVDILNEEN

[5] = biological target: T6, human PCSK7, myc-myc-his tagged (human, UniProt Q16549 142-667, limits assumed); experiment: ELISA, mAb coated
T6 construct: also called hPCSK7-mmh; hPCSK7
T6 sequence: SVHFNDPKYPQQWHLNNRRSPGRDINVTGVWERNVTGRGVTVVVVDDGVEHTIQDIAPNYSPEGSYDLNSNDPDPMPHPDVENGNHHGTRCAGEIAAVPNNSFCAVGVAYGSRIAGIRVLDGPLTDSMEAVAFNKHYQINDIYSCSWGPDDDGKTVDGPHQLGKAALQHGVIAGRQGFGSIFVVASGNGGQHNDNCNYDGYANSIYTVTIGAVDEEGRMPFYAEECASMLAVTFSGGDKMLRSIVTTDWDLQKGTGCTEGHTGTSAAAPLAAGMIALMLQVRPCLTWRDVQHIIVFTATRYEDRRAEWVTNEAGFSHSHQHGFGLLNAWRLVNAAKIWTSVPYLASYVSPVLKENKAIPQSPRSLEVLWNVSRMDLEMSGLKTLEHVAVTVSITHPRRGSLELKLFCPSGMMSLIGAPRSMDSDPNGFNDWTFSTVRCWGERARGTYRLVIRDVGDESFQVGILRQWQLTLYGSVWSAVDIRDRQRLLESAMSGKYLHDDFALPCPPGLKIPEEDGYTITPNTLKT

T1 sequence (A8T662 31-692 limits assumed): as the sequence (A8T666 31-692 limits assumed) above, with P607A, K639E counted along it

B1: H1H316P (antibody, V domains shown)
VH: EVQLVESGGGLVQPGGSLRLSCAASGFTFNNYAMNWVRQAPGKGLDWVSTISGSGGTTNYADSVKGRFIISRDSSKHTLYLQMNSLRAEDTAVYYCAKDSNWGNFDLWGRGTLVTVSS
VL: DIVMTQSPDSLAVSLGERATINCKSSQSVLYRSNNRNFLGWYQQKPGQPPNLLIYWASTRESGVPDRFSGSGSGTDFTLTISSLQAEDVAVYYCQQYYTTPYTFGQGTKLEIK
notes: Fully human mAb made in CHO cells; also called mAb316P
B1 gave a Kd [1] of 1.8 nM, a T1/2 [1] of 11 min and a Kd [2] of 19 nM. The T1/2 [2] was 1 min, the Kd (Human PCSK9-myc-myc-his) was 1.8 nM and the T1/2 (Human PCSK9-myc-myc-his) was 9 min. The Kd [3] was 1.8 nM, the T1/2 [3] was 21 min and the binding result [4] was “no binding (tested: 1.2 nM)”. B1: no binding (tested: 1.2 nM) [5].
